According to the DeepSol protein solubility set:

Assay: soluble on expression in E. coli; label from the status in PepcDB or PDB records

| Sequence | soluble on expression in E. coli |
| --- | --- |
| SLARELMRTQKEIFALILDFAKRTDSIRAVTLEGSRANPNIKQDKFCDYDISFFLNAKNLESFKNNEEWLKIFGNILMLQKPESMELYPPDLREGWFSFLVLFDDGVRIDLSLIPLADIEWYKDNERLMRVLLDKDNQFMPINEPSDSAFFIKPLTKQSFLDCCNELYWLYVCTHKDILRGELLLANAHLAMMREGLLILLSWRVALRQNNFAFSLGKEYKFLPHFLEPKERKTLYKCYKLGDLKQAQKTLKIMEKFFAKNARELIKVHFKDLHTLPYAKVAKQYVRILKHKIV | soluble |
| CILRFIACNGQTRAVQSRGDYQKTLAIALKKFSLEDASKFIVCVSQSSRIKLITEEEFKQICFNSSSPERDRLIIVPKEKPCPSFEDLRRSWEIELAQPAALSSQSSLSP | soluble |
| QLVIERVSLPNPGKEKMTQALLTYVRRQGLSSLNWTPAAESLLERIRCAVDWLPEQAWPMFDEASLLDSLDEWLEPYMTSVA | not soluble |
| DAQTRRRERRAEKQAQWKAANPLLVGVSAKPVNRP | soluble |
| MSLSPLEMALLVHRGEFHLRELEPELPLEKFLKNADPKKTRKFLEKCGKEELERQKELIRKHNVKLVSFWEDDYPQHLREIRYPPAVLFVRGDAELLKEKCVGVVGTRRPTSYGVNVTKRFVKLLSEYFVIVSGMAFGIDSVAHKEALSSGGKTVAVLGTGVDVVYPRSNERLFHEIVKNGCVVSEYPMGTRARKHHFPARNRIIAGLSDAIIVTEAPIKSGALITVKFALESGRDVFAVPGDIDRKTSEGTNYLIKSGAYPLTDEEDLETHFGIRRIASPSLDDDKKKIYDLLRSSPKTVDELVEELGWSVSEVLRVISEMELMGMIWFDGGAYRLLGEGHHHHHH | soluble |
| MATLTEDDVLEQLDAQDNLFSFMKTAHSILLQGIRQFLPSLFVDNDEEIVEYAVKPLLAQSGPLDDIDVALRLIYALGKMDKWLYADITHFSQYWHYLNEQDETPGFADDITWDFISNVNSITRNATLYDALKAMKFADFAVWSEARFSGMVKTALTLAVTTTLKELTP | soluble |
| MSLATAAPFVSDQAEAKGFVEGSTLDLKLRNYYYNRDRKNNPAPGGRSDKDWTQGIWANFSTGYTQGTIGVAAEAFGYGALRLWGPDKYSGSGNLVTDSNGDNEATQGKFGGAVKFRVSKTELKVGDMQPTSPVFAVGGSRILPQTASGLSLQSSEIAGLDLEAGHFYSGTSQDDTSHNGSIWATYANGFNGLKANSADFLGGKYAITDGLGVAFYAAKLEDIWDQYYGNVNYALPLGNDQSLAFDVNLYRTLDEGSSKADSINNTTYSASAAYSFLAAHTVTVAYQKVDGDTPFDYIGIGDNNRGGDSIFLANSVQYSDFNGPGEKSWQIRYDLNMTPYGVPGLSFMTRYLNGDNIDGTKVDASSLYANMYGADGKHHETNLEAKYVVQAGPAKDLSFRMRQAWHRGNDAQSDGDVNEFRLIVDYPISILKGIITITTDPNSSSVDKLAAALEHHHHHH | soluble |
| VHSELTAAVGWNVWNELFTCSDDQTIHKWNMLGEPEQKVSTLDAYFTDMHWYPVSSKKTQAGGTDVFAVACTDGSVKILSRTGRVEKSIEGHKGACISLRWSYDGTALATAGEDGSVKIWSRNGMLRSTLAQADSPVYSIVWAYDCDQLCYCTGSNVVIKSLSSNAKQNAWKAHDGVVLKVDWSPINHLIITGGEDCKYKVWDSFGRLLFQSGLFDYPVTSVAWAPSGELFAVGGFNTLQLCDRMGWAYSKIHLNDTGSIMTLSWTADSTQLA | not soluble |
| APLKLYGMPLSPNVVRVATVLNEKGLDFEIVPVDLTTGAHKQPDFLALNPFGQIPALVDGDEVLFESRAINRYIASKYASEGTDLLPATASAAKLEVWLEVESHHFYPNASPLVFQLLVRPLLGGAPDAAVVDKHAEQLAKVLDVYEAHLARNKYLAGDEFTLADANHASYLLYLSKTPKAGLVAARPHVKAWWEAIVARPAFQKTVAAIPLPPPP | soluble |
| MGSDKIHHHHHHMDLSNLNEKDMALGCKYCIKGEKLVLYITGLCEESCYYCPLSEKRKKKDVIFANEKQINSIEEAVEEARLCGSKGVGITGGNPLLRIERTVEYLKALKEEFGSDFHAHLYTTPKFVSEKNLKLLKDAGLDEIRLHSSKLFNDFENFDKLDFLEKLKLCKNYIKDVGVEIPGIPNFEKEILDLAFEIDKIGVKFLNINELEYSETNYQSLIDRGFSEKDDTTSRISGSFETAKYIIDNFKGKLIIHFCPSSLKDSVQMKNRLINRARNVAKPYEEITEEGLLLKGTINFKDLKDVSEVLEVLKENDVEFELLNDRLLLNPEILEDLIDHLKENNFDFKFSAYISEYYPTSDKLEVERIPLVTKKPNLKLKKK | not soluble |
